Measurements: the supplement of paper PMC10567573

B1: GLTSCR2 (parent)
chain: YNPSFEDHQTLLSAAHEVELQRQK
B2: ZNF193 (parent)
chain: QKRYHCKECGKVFSQSAGLIQHQR

Variants of: B1
Experiment: protein stability index of a GFP-peptide fusion (GPS, HEK-293T) (PSI 1-6); higher = more stable
Details: c terminus: a fixed tail appended
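Further: lentivirally expressed fusions sorted by FACS into six bins by GFP to DsRed ratio, PSI derived from sequencing read proportions per bin multiplied by bin number.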

Protein stability index, by site and new letter:
Q23: C 3.06; M 3.4; R 3.5; P 3.96; I 3.23; Y 3.19; A 3.75; G 4.12; V 3.57; T 3.68; E 4.13; K 3.75; L 3.21; W 2.95; H 3.33; D 4.23; N 3.45; F 2.56; S 3.63
K24: Y 3.18; R 3.21; A 3.39; W 2.79; I 3.33; D 4.28; T 3.98; L 3.48; P 3.33; H 3.23; N 3.96; E 4.36; S 3.97; F 2.66; Q 3.81; V 3.31; G 3.78; M 3.28; C 3.22
Q21: T 3.44; E 3.42; H 2.96; L 2.96; F 3.06; S 3.96; M 3.06; V 3.28; D 4.16; K 3.17; A 3.34; I 3.26; G 3.26; N 3.71; P 4.07; Y 3.18; R 3.95; C 3.61; W 3.06
E17: P 3.33; L 2.96; Y 2.51; A 3.15; M 3.29; Q 2.94; D 3.85; W 2.73; F 2.45; I 3.03; K 3.43; V 2.83; S 3.43; T 3.36; N 3.33; G 2.94; C 2.88; R 3.4; H 2.78
L20: G 4.16; K 4.44; S 4.26; F 3.57; M 3.67; I 3.71; A 4.04; Q 3.87; D 4.29; R 3.89; N 4.09; T 4.39; W 3.19; H 4.51; P 4.46; E 4.54; V 3.63; Y 3.74; C 3.99
E19: L 2.28; K 3.25; T 3.5; F 2.49; Y 2.42; A 2.63; N 3.36; Q 3.36; W 2.75; I 2.85; V 2.67; D 4.05; S 3.39; R 2.69; M 3.01; C 3.33; G 3.8; H 3.39; P 3.86
R22: L 3.18; P 4.21; C 3.35; Y 3.16; W 2.71; T 3.96; S 3.9; H 3.99; I 2.91; N 4.32; Q 4.24; A 4.18; M 3.4; E 4.69; G 3.86; K 4.13; V 3.7; D 4.84; F 3.43
H16: Y 3.34; M 3.63; P 4.19; G 4.16; R 3.2; F 2.91; W 2.51; C 3.28; Q 3.48; E 4.38; D 4.43; I 2.53; V 2.97; K 3.51; N 3.92; T 3.93; L 3.22; A 3.64; S 4.45
V18: S 3.65; D 4.13; M 3.65; H 3.28; Y 3.49; R 3.43; P 4.41; F 3.1; C 3.65; W 2.54; N 3.8; K 4.14; T 4.24; Q 3.76; A 4; G 3.79; I 3.67; E 4.44; L 3.69
A15: Y 3.48

Variants of: B2
Experiment: as above
Details: c terminus: a fixed tail appended

Protein stability index: each site, then its substitutions
K7: T 2.74; D 3.15; Q 3.15; G 2.92; A 2.95; H 2.94; R 2.66; E 3.52; P 3.33; M 2.6; V 2.99; Y 3.1; I 2.69; S 3.35; W 2.49; L 2.95; F 2.53; C 2.65; N 3.23
E8: Y 2.67; M 2.6; G 2.66; A 2.75; T 2.94; Q 2.91; R 3.12; H 3.81; V 2.68; D 2.93; F 2.56; C 4.26; W 2.71; P 2; N 2.99; L 2.75; S 2.59; I 2.98; K 3.5
Q1: W 1.9; Y 2.2; L 2.62; I 3.03; C 2.42; P 3.16; N 2.32; R 3.19; V 3.05; S 2.88; E 3.7; K 3.1; D 3.71; G 2.81; T 2.98; A 2.67; H 2.73; M 2.45; F 2.45
R3: H 2.92; L 3.58; P 2.98; Y 3.52; T 3.59; E 3.26; W 3.52; I 3.55; K 3.23; A 3.18; G 2.93; V 3.2; Q 3.33; N 2.87; S 3.12; F 3.6; D 2.35; C 3.48; M 3.23
Y4: W 2.86; S 2.11; L 2.4; C 2.41; P 2.47; E 2.15; N 2.39; K 2.65; H 2.47; A 1.99; I 2.4; V 2.25; D 2.48; T 1.97; F 2.72; G 2.14; R 1.98; M 2.17; Q 2.42
H5: E 3.62; A 3.25; L 3.75; M 4.01; T 3.23; I 3.91; P 3.1; V 3.95; F 3.01; Q 3.88; Y 3.29; N 2.77; S 2.94; K 3.92; W 2.98; G 2.23; D 2.37; C 3.34; R 3.9
C9: K 3.64; F 2.17; G 3.2; L 2.52; A 3.45; D 3.97; E 3.64; H 3.13; M 2.63; I 2.83
K2: G 3.31; S 2.48; Y 2.6; C 2.39; A 2.85; L 2.81; I 2.81; Q 3.04; E 3.08; M 3.1; H 3.06; F 2.31; T 2.24; P 3.07; W 2.17; N 2.86; D 3.31; V 2.58; R 2.76
C6: H 2.24; I 2.12; R 2.6; S 2.88; K 2.69; W 1.96; L 2.31; N 2.74; D 3.05; M 2.75; P 2.18; F 2.08; G 2.62; Y 1.73; Q 2.28; T 2.83; A 2.63; V 2.8; E 3.74
